Data reported in paper PMC12487280.

Assays:
[1] = CHX-chase, Western blot, ccRCC cells; settings: glycan lost; control: WT / shCtrl / untreated
[2] = Western blot of UBAP2L, ccRCC cells; settings: control: shCtrl / untreated
[3] = Flag IP, HA-Ub blot, MG132; settings: control: shCtrl
qPCR, 786-O and Caki-1 = settings: glycan lost; control: UBAP2L-WT overexpression

B1: UBAP2L: OGT knockdown (protein)
parent chain: MMTSVGTNRARGNWEQPQNQNQTQHKQRPQATAEQIRLAQMISDHNDADFEEKVKQLIDITGKNQDECVIALHDCNGDVNRAINVLLEGNPDTHSWEMVGKKKGVSGQKDGGQTESNEEGKENRDRDRDYSRRRGGPPRRGRGASRGREFRGQENGLDGTKSGGPSGRGTERGRRGRGRGRGGSGRRGGRFSAQGMGTFNPADYAEPANTDDNYGNSSGNTWNNTGHFEPDDGTSAWRTATEEWGTEDWNEDLSETKIFTASNVSSVPLPAENVTITAGQRIDLAVLLGKTPSTMENDSSNLDPSQAPSLAQPLVFSNSKQTAISQPASGNTFSHHSMVSMLGKGFGDVGEAKGGSTTGSQFLEQFKTAQALAQLAAQHSQSGSTTTSSWDMGSTTQSPSLVQYDLKNPSDSAVHSPFTKRQAFTPSSTMMEVFLQEKSPAVATSTAAPPPPSSPLPSKSTSAPQMSPGSSDNQSSSPQPAQQKLKQQKKKASLTSKIPALAVEMPGSADISGLNLQFGALQFGSEPVLSDYESTPTTSASSSQAPSSLYTSTASESSSTISSNQSQESGYQSGPIQSTTYTSQNNAQGPLYEQRSTQTRRYPSSISSSPQKDLTQAKNGFSSVQATQLQTTQSVEGATGSAVKSDSPSTSSIPPLNETVSAASLLTTTNQHSSSLGGLSHSEEIPNTTTTQHSSTLSTQQNTLSSSTSSGRTSTSTLLHTSVESEANLHSSSSTFSTTSSTVSAPPPVVSVSSSLNSGSSLGLSLGSNSTVTASTRSSVATTSGKAPPNLPPGVPPLLPNPYIMAPGLLHAYPPQVYGYDDLQMLQTRFPLDYYSIPFPTPTTPLTGRDGSLASNPYSGDLTKFGRGDASSPAPATTLAQPQQNQTQTHHTTQQTFLNPALPPGYSYTSLPYYTGVPGLPSTFQYGPAVFPVAPTSSKQHGVNVSVNASATPFQQPSGYGSHGYNTGVSVTSSNTGVPDISGSVYSKTQQSFEKQGFHSGTPAASFNLPSALGSGGPINPATAAAYPPAPFMHILTPHQQPHSQILHHHLQQDGQTGSGQRSQTSSIPQKPQTNKSAYNSYSWGAN
[1]
  degradation_or_half_life: decreases
[2]; glycan lost
  expression_or_secretion: decreases

B2: UBAP2L: shOGA (protein)
parent chain: MMTSVGTNRARGNWEQPQNQNQTQHKQRPQATAEQIRLAQMISDHNDADFEEKVKQLIDITGKNQDECVIALHDCNGDVNRAINVLLEGNPDTHSWEMVGKKKGVSGQKDGGQTESNEEGKENRDRDRDYSRRRGGPPRRGRGASRGREFRGQENGLDGTKSGGPSGRGTERGRRGRGRGRGGSGRRGGRFSAQGMGTFNPADYAEPANTDDNYGNSSGNTWNNTGHFEPDDGTSAWRTATEEWGTEDWNEDLSETKIFTASNVSSVPLPAENVTITAGQRIDLAVLLGKTPSTMENDSSNLDPSQAPSLAQPLVFSNSKQTAISQPASGNTFSHHSMVSMLGKGFGDVGEAKGGSTTGSQFLEQFKTAQALAQLAAQHSQSGSTTTSSWDMGSTTQSPSLVQYDLKNPSDSAVHSPFTKRQAFTPSSTMMEVFLQEKSPAVATSTAAPPPPSSPLPSKSTSAPQMSPGSSDNQSSSPQPAQQKLKQQKKKASLTSKIPALAVEMPGSADISGLNLQFGALQFGSEPVLSDYESTPTTSASSSQAPSSLYTSTASESSSTISSNQSQESGYQSGPIQSTTYTSQNNAQGPLYEQRSTQTRRYPSSISSSPQKDLTQAKNGFSSVQATQLQTTQSVEGATGSAVKSDSPSTSSIPPLNETVSAASLLTTTNQHSSSLGGLSHSEEIPNTTTTQHSSTLSTQQNTLSSSTSSGRTSTSTLLHTSVESEANLHSSSSTFSTTSSTVSAPPPVVSVSSSLNSGSSLGLSLGSNSTVTASTRSSVATTSGKAPPNLPPGVPPLLPNPYIMAPGLLHAYPPQVYGYDDLQMLQTRFPLDYYSIPFPTPTTPLTGRDGSLASNPYSGDLTKFGRGDASSPAPATTLAQPQQNQTQTHHTTQQTFLNPALPPGYSYTSLPYYTGVPGLPSTFQYGPAVFPVAPTSSKQHGVNVSVNASATPFQQPSGYGSHGYNTGVSVTSSNTGVPDISGSVYSKTQQSFEKQGFHSGTPAASFNLPSALGSGGPINPATAAAYPPAPFMHILTPHQQPHSQILHHHLQQDGQTGSGQRSQTSSIPQKPQTNKSAYNSYSWGAN
[3]; glycan gained
  other: ubiquitination: decreases

B3: UBAP2L: UBAP2L-MUT (S305A) (protein)
parent chain: MMTSVGTNRARGNWEQPQNQNQTQHKQRPQATAEQIRLAQMISDHNDADFEEKVKQLIDITGKNQDECVIALHDCNGDVNRAINVLLEGNPDTHSWEMVGKKKGVSGQKDGGQTESNEEGKENRDRDRDYSRRRGGPPRRGRGASRGREFRGQENGLDGTKSGGPSGRGTERGRRGRGRGRGGSGRRGGRFSAQGMGTFNPADYAEPANTDDNYGNSSGNTWNNTGHFEPDDGTSAWRTATEEWGTEDWNEDLSETKIFTASNVSSVPLPAENVTITAGQRIDLAVLLGKTPSTMENDSSNLDPSQAPSLAQPLVFSNSKQTAISQPASGNTFSHHSMVSMLGKGFGDVGEAKGGSTTGSQFLEQFKTAQALAQLAAQHSQSGSTTTSSWDMGSTTQSPSLVQYDLKNPSDSAVHSPFTKRQAFTPSSTMMEVFLQEKSPAVATSTAAPPPPSSPLPSKSTSAPQMSPGSSDNQSSSPQPAQQKLKQQKKKASLTSKIPALAVEMPGSADISGLNLQFGALQFGSEPVLSDYESTPTTSASSSQAPSSLYTSTASESSSTISSNQSQESGYQSGPIQSTTYTSQNNAQGPLYEQRSTQTRRYPSSISSSPQKDLTQAKNGFSSVQATQLQTTQSVEGATGSAVKSDSPSTSSIPPLNETVSAASLLTTTNQHSSSLGGLSHSEEIPNTTTTQHSSTLSTQQNTLSSSTSSGRTSTSTLLHTSVESEANLHSSSSTFSTTSSTVSAPPPVVSVSSSLNSGSSLGLSLGSNSTVTASTRSSVATTSGKAPPNLPPGVPPLLPNPYIMAPGLLHAYPPQVYGYDDLQMLQTRFPLDYYSIPFPTPTTPLTGRDGSLASNPYSGDLTKFGRGDASSPAPATTLAQPQQNQTQTHHTTQQTFLNPALPPGYSYTSLPYYTGVPGLPSTFQYGPAVFPVAPTSSKQHGVNVSVNASATPFQQPSGYGSHGYNTGVSVTSSNTGVPDISGSVYSKTQQSFEKQGFHSGTPAASFNLPSALGSGGPINPATAAAYPPAPFMHILTPHQQPHSQILHHHLQQDGQTGSGQRSQTSSIPQKPQTNKSAYNSYSWGAN
qPCR, 786-O and Caki-1
  other: Melk mRNA level: decreases

B4: UBAP2L: OGA knockdown (protein)
parent chain: MMTSVGTNRARGNWEQPQNQNQTQHKQRPQATAEQIRLAQMISDHNDADFEEKVKQLIDITGKNQDECVIALHDCNGDVNRAINVLLEGNPDTHSWEMVGKKKGVSGQKDGGQTESNEEGKENRDRDRDYSRRRGGPPRRGRGASRGREFRGQENGLDGTKSGGPSGRGTERGRRGRGRGRGGSGRRGGRFSAQGMGTFNPADYAEPANTDDNYGNSSGNTWNNTGHFEPDDGTSAWRTATEEWGTEDWNEDLSETKIFTASNVSSVPLPAENVTITAGQRIDLAVLLGKTPSTMENDSSNLDPSQAPSLAQPLVFSNSKQTAISQPASGNTFSHHSMVSMLGKGFGDVGEAKGGSTTGSQFLEQFKTAQALAQLAAQHSQSGSTTTSSWDMGSTTQSPSLVQYDLKNPSDSAVHSPFTKRQAFTPSSTMMEVFLQEKSPAVATSTAAPPPPSSPLPSKSTSAPQMSPGSSDNQSSSPQPAQQKLKQQKKKASLTSKIPALAVEMPGSADISGLNLQFGALQFGSEPVLSDYESTPTTSASSSQAPSSLYTSTASESSSTISSNQSQESGYQSGPIQSTTYTSQNNAQGPLYEQRSTQTRRYPSSISSSPQKDLTQAKNGFSSVQATQLQTTQSVEGATGSAVKSDSPSTSSIPPLNETVSAASLLTTTNQHSSSLGGLSHSEEIPNTTTTQHSSTLSTQQNTLSSSTSSGRTSTSTLLHTSVESEANLHSSSSTFSTTSSTVSAPPPVVSVSSSLNSGSSLGLSLGSNSTVTASTRSSVATTSGKAPPNLPPGVPPLLPNPYIMAPGLLHAYPPQVYGYDDLQMLQTRFPLDYYSIPFPTPTTPLTGRDGSLASNPYSGDLTKFGRGDASSPAPATTLAQPQQNQTQTHHTTQQTFLNPALPPGYSYTSLPYYTGVPGLPSTFQYGPAVFPVAPTSSKQHGVNVSVNASATPFQQPSGYGSHGYNTGVSVTSSNTGVPDISGSVYSKTQQSFEKQGFHSGTPAASFNLPSALGSGGPINPATAAAYPPAPFMHILTPHQQPHSQILHHHLQQDGQTGSGQRSQTSSIPQKPQTNKSAYNSYSWGAN
[2]; glycan gained
  expression_or_secretion: increases

B5: UBAP2L: shOGT (protein)
parent chain: MMTSVGTNRARGNWEQPQNQNQTQHKQRPQATAEQIRLAQMISDHNDADFEEKVKQLIDITGKNQDECVIALHDCNGDVNRAINVLLEGNPDTHSWEMVGKKKGVSGQKDGGQTESNEEGKENRDRDRDYSRRRGGPPRRGRGASRGREFRGQENGLDGTKSGGPSGRGTERGRRGRGRGRGGSGRRGGRFSAQGMGTFNPADYAEPANTDDNYGNSSGNTWNNTGHFEPDDGTSAWRTATEEWGTEDWNEDLSETKIFTASNVSSVPLPAENVTITAGQRIDLAVLLGKTPSTMENDSSNLDPSQAPSLAQPLVFSNSKQTAISQPASGNTFSHHSMVSMLGKGFGDVGEAKGGSTTGSQFLEQFKTAQALAQLAAQHSQSGSTTTSSWDMGSTTQSPSLVQYDLKNPSDSAVHSPFTKRQAFTPSSTMMEVFLQEKSPAVATSTAAPPPPSSPLPSKSTSAPQMSPGSSDNQSSSPQPAQQKLKQQKKKASLTSKIPALAVEMPGSADISGLNLQFGALQFGSEPVLSDYESTPTTSASSSQAPSSLYTSTASESSSTISSNQSQESGYQSGPIQSTTYTSQNNAQGPLYEQRSTQTRRYPSSISSSPQKDLTQAKNGFSSVQATQLQTTQSVEGATGSAVKSDSPSTSSIPPLNETVSAASLLTTTNQHSSSLGGLSHSEEIPNTTTTQHSSTLSTQQNTLSSSTSSGRTSTSTLLHTSVESEANLHSSSSTFSTTSSTVSAPPPVVSVSSSLNSGSSLGLSLGSNSTVTASTRSSVATTSGKAPPNLPPGVPPLLPNPYIMAPGLLHAYPPQVYGYDDLQMLQTRFPLDYYSIPFPTPTTPLTGRDGSLASNPYSGDLTKFGRGDASSPAPATTLAQPQQNQTQTHHTTQQTFLNPALPPGYSYTSLPYYTGVPGLPSTFQYGPAVFPVAPTSSKQHGVNVSVNASATPFQQPSGYGSHGYNTGVSVTSSNTGVPDISGSVYSKTQQSFEKQGFHSGTPAASFNLPSALGSGGPINPATAAAYPPAPFMHILTPHQQPHSQILHHHLQQDGQTGSGQRSQTSSIPQKPQTNKSAYNSYSWGAN
[3]; glycan lost
  other: ubiquitination: increases
